The values that follow are results of earlier work, collected in article PMC4775371.

This data set addresses H1.0 (UniProt P07305).
Sequence of UniProt P07305 (P07305 2-194): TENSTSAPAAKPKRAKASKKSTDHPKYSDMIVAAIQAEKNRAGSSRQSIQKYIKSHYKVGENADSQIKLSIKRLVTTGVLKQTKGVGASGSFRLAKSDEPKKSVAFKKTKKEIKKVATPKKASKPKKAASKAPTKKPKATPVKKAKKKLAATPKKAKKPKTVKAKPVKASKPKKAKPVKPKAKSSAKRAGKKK

As for FACT (from UniProt Q9Y5B9), the Kd (as a rule, the constant that tells how readily two partners part at equilibrium) was 0.032 µM.
